What was measured:
[1] = target: NPB1 (influenza B virus B/Houston/B720/2004) (UniProt O36433); assay: ELISA on recombinant NP
[2] = target: NP of B/Brisbane/60/2008(fluB) (influenza B virus B/Brisbane/60/2008); assay: ELISA on virus-infected fixed MDCK cells

ab47876 (antibody)
EC50 [1]: 0.13 nM
EC50 [2]: 2.06 nM

Source: US20230212554A1
